Experimental data published in the nanobody polyreactivity screen of Harvey et al. (2022).

Test: yeast display, Sf9 membrane polyspecificity reagent, FACS + sequencing; frameworks hold sequencing errors
Procedure, shortened: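 Galactose induction of a Saccharomyces cerevisiae BJ5465 synthetic nanobody display library ran 36–48 hours. The cells were then stained for 1 hour at 4 °C with 10% biotinylated, detergent-solubilized Sf9 membrane reagent, pulled down on streptavidin microbeads and FACS-sorted into low and high (top ~1%) gates on expression and reagent-binding fluorescence. Labels for polyreactivity follow the gate of origin.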

| Sequence | polyreactivity (PSR sort gate) |
| --- | --- |
| QVQLVESGGGLVQAGGSLRLSCAASGIIFDLNAMGWYRQAPGKERELVAAITSGGSTYYADSVKGRFTISRDNAKNTVYLQMNSLKPEDTAVYYCAADYQAGDKLYDYWGQGTQVTLSS | low polyreactivity |
| QVQLVESGGGLVQAGGSLRLSCAASGSNFRVYAMGWYRQAPGKERELVAAISSSGVRTSYADSVKGRFTISRDIAKNTVYLQMNSLKPEDTSVYYCADRYPYGYYHWGQGTQVTVSS | high polyreactivity |
| QVQLVESGGGLVQAGGSLRLSCAASGRIFLVYAMGWYRQAPGKEREIVASISWSGGSTSYADTVKGLFTISRDNAKNNVSLQMNSLKPEDTAVYYCNAIRRPIFFRGRYYWGQGTQVTVSS | low polyreactivity |
| QVQLVESGGGLVQAGGSLSLRCAASGRTVGSYAMVWYRQAPGKERELVAVINGDGSTYYADSVKGRFTISRDNAKNTVYFQMNSLKPVDTAVYYCNNVSFYLGTRRVSLKHYYWGQGTQVTLSS | low polyreactivity |
| QVHRGESGGGLVQAGGSLRLSCPASGFIFRYYPMGWYRQAPGKESELVASISYSGGTTYYADSVKGRFTISRDNAKNTVYLQMNSLKPEDTAVYYCNVYSRTHYQTYTDDYWGQGTQVTVSS | high polyreactivity |
| QVQLVESGGGLVQAGGSLRLSCAASGRTLTSNAMGWYRQAPGKERELVASITGSSSNTYYADSVKGRFTISRDNAKNTVYLQMNSLKPEDTAVYYCAAEVGFPWWRLDEYWGQGTQVTVSS | low polyreactivity |
| QVQLVESGGGLVQAGGSLRLSCAASGRILKYYAMGWYRQAPGKERELVAAISGSSGSTYYADSVKGRFTISRDNAKNTVYLQMNSLKPEDTAVYYCAAQGRDSTPHGYWGQGTQVTVSS | high polyreactivity |
| QLQLVESGGWLVQAGGSLRLSCAASGGTIVTYAMGWYRQAPGKERELVAAISRRGGSTFSADSVKGRFTISRDNAKNTVYLQMNSLKPADTAVYYCAALSNHGYYIRMDYWGHGTQVTVSS | high polyreactivity |
| QVQLVESGGGLVQAGGSLRLRCAASGRTLVAYAMGWYRQAPGKERELVAAIDTDTGITYYADSVKGRFTISRDNAKNTVYLQMNSLKPEDTAVYYCAAETYYAVSTGYDFDYWGQGTQVTVSS | high polyreactivity |
| QVQLVESGGGLVQAGGSLRLSCAASGSTSDIYAMGWYRQAPGKEREFVAAISLTGGTTYYADSVKGRFTISCDNAKNTVYLQMNSLKPEDTAVYYCNADVGWWGYDDDYWGQGTQVTVSS | high polyreactivity |
| QVQLVESGGGLVQAGGSLRLSCAASGITIRRYAMGWYRQAPGKERELVAAISTSGGGTYYADSVKGRFTISRDNAKYTVYLQMNSLKPEDTAVYYCAARYLGYLLSGYPPYDYWGQGTQVTVSS | high polyreactivity |
| QVQLVESGGGLVQAGGSLRISCAASGRTFRWYAMGWYRQAPGKERELVAAISWNGGSTYYADSVKGRFTISRDNAKNTVYLQMNSLKPEDTAVYYCAVKAGPSRPYYSWGQGTQVTVSS | high polyreactivity |
| QVQLVESGGGLVQAGGSLRLSCAASGYIYIRNAMGWYRQAPGKERELVAAISCTGGSTYYADSVKGRFTISRDNAKNTVYLQMKILKPEDTAVYYCNKYYRAWLLWDYGYWGQGTQVTVSS | high polyreactivity |
| QVQLVESGGGLVQAGGSLRLSCAASGSIFKIYAMGWDRQAPGKERELVASITGSGGSTYYADSVKGRFTISRDNAKNTVYLQMNSLKPEDPAVYYCAVEAWSVPPYDYWGQGTQVTVSS | low polyreactivity |
| QVQLVESGGGLVQAGGSLRLSCAASGFTFGSNDMGWYRQAPGKERELVAAINYSGVRTYYADSVKGRFTISRDNAKNTVYLQMNSLKPEDTAVYYCAKKRSKPISFDYWVQGTQVTVSS | high polyreactivity |
| QVQLVESGGGLVQAGGSLRLSCAASGRTFQLNAMGWYRQGPGNERELVAAISTRGGSTYYADSVKGRFTISRDNAKNTVYLQMNSLKPEDTAVYYCAKDPSFTRGYKEGGGYDYWGQGTQVTVSS | high polyreactivity |
| QVQVVESGGGFVQAGGSLRLSCAASGFTYYSYAMGWYRQAPGKEREFVAAGSTYYADSVKGRFTISRDNAKNTVYLQMNSLTPEDTAVYYCAADPWIYVQSYGYWGQGTQVTVSS | low polyreactivity |
| QVQIVESGGGLVQAGGSLRVSCAASGSILSKYDMGWYRPAPGKERELVAVISSRGGSTYYADSVKGRFTISRDNAKNTVYLQMNSLKPEDTAVYYCNARSGRGYGYWGQGTQVTVSS | high polyreactivity |
| QVQLVESGGGLVQAGGSLRLICAASGRIIPSYSMGWYRQAPAKEREFVAVIRSSVDGTYYADSVKGRFTISRDYAKNTVYLHMNSLNPDDTSVYYFSADSYPFFIRNLYPVLEGEYGHWGQGTQVNVSS | low polyreactivity |
| QVQLVESGGGLVQAGGSLRLSCAASGRTLFFYAMGLYRQAPGKERELVAAISSSGTRTYYADSVKGRFTISRDNAKNTVYLQMNSLIPEDTAVYYCNKVKYYRTGGMEYWGQGTQVTVSS | high polyreactivity |
| QVQLVESGGGLVQARGSLRLSCASSGSIFTDNGMGWYRQPPGKESDLVAAISWRGGTYYADSVKGRFTISRDNAKNTVYLQMNSLKPEDSAVYYSAADVLRISTRLFRGPGFDSWGQGTQVTVSS | low polyreactivity |
